Assay results taken from patent US20080107630.

Test system: gelatin (0.1%, incorporated in a 10% Tris-glycine polyacrylamide gel as substrate)

human matrix metalloproteinase-8 (recombinant, secreted by A549 cells infected with AdMMP8)
gelatin hydrolysis in zymogram gel: The gelatin hydrolysis visible in the zymogram gel
